Measurements published in PMC3536784, “Structural Characterization of Pandoraea pnomenusa B-356 Biphenyl Dioxygenase Reveals Features of Potent Polychlorinated Biphenyl-Degrading Enzymes” (PLoS ONE, 2013).

System: c1ccc(-c2ccccc2)cc1
Assay: purified protein
Settings: apparent, air-saturated 50 mM MES pH 6.0, NADH 123 µM, BphG B356 and BphF LB400 as electron transfer partners, Fe(II) added, well coupled
Source text: O2 consumption, Clark-type oxygen electrode on BPDOB356 (biphenyl dioxygenase, oxygenase component BphAE)

Substance	Km	kcat	kcat/Km
BPDOB356 (biphenyl dioxygenase, oxygenase component BphAE) (Comamonas testosteroni; M231A)	9.4 (1.9) µM	2.1 s⁻¹	200000 M⁻¹ s⁻¹
BPDOB356 (biphenyl dioxygenase, oxygenase component BphAE) (Comamonas testosteroni; M231T)	11.1 (3.1) µM	2.9 s⁻¹	300000 M⁻¹ s⁻¹
